What is called Kd is the concentration at which binding is half-saturated. One may read the koff as a measure of how fast the partners let go of each other. Low values mean slow dissociation, high ones fast dissociation. By kon is commonly meant the second-order rate constant of association. A higher kon goes with fast association.

This note sets out measurements from patent publication US20140309404A1.

For test [1], the target named is human BMP-6 (human) (UniProt P22004). In words: SPR (BIAcore), BMP-6 immobilised on CM4 chip, antibody injected, 37 C.
Test [2] addresses human BMP-7 (human) (UniProt P18075). In words: SPR (BIAcore), BMP-7 immobilised on CM4 chip, antibody injected, 37 C. On the technique in general: In SPR one partner is held on a chip, and binding of the other changes the refractive index at the surface.
Test [3] deals with human BMP-5 (human) (UniProt P22003). In words: cell-based or functional assay.
The target of test [4] is BMP-10. In words: cell-based or functional assay.
Test [5] addresses human BMP-6 (human) (UniProt P22004). In words: cell-based or functional assay.
Test [6] addresses BMP-2. In words: cell-based or functional assay.
The target in test [7] is human BMP-7 (human) (UniProt P18075). In words: cell-based or functional assay.
Test [8] concerns the target BMP-4. In words: cell-based or functional assay.
Test [9] concerns the target BMP-9. In words: cell-based or functional assay.

human BMP-6 (human), sequence (P22004 382-513 limits assumed): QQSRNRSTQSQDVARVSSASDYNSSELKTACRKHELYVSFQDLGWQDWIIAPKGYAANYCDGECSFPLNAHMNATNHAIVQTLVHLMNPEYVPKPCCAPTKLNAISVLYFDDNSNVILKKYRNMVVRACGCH
human BMP-7 (human), sequence (P18075 293-431 limits assumed): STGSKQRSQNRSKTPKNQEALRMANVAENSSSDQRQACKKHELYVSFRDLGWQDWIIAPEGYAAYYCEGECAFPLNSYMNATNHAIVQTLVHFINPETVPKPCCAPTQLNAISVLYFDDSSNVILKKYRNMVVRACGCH
human BMP-5 (human), sequence (P22003 317-454 limits assumed): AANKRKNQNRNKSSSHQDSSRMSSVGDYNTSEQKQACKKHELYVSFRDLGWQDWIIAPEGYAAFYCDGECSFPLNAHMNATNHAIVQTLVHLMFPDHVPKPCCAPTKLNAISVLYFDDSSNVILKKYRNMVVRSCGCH

In test [1], MAB507 (antibody) registered a Kd of 1 nM, a koff of 0.000187 s⁻¹ and an on-rate constant (kon) of 187000 M⁻¹ s⁻¹. Besides, in test [2], the Kd was found to be 23.2 nM, the off-rate constant (koff) worked out at 0.000793 s⁻¹ and the kon is 34200 M⁻¹ s⁻¹. For the same substance, the Mean % Inh at 1000 nM, BMP-5 induced Hep Luc Assay in test [3] was -43.5%. Besides, the Mean % Inh at 1000 nM, BMP-10 induced Hep Luc Assay in [4] was -87.2%. The Geometric Mean IC50 (nM), BMP-6 induced Hep Luc Assay (hepcidin promoter luciferase, HepProm Luc cells) in test [5] was 22.1 nM. The Mean % Inh at 1000 nM, BMP-2 induced Hep Luc Assay in test [6] was -50.6%. Besides, in test [7], the Mean % Inh at 1000 nM, BMP-7 induced Hep Luc Assay was 54.2%. In test [8], the Mean % Inh at 1000 nM, BMP-4 induced Hep Luc Assay was -65.4%. Further, in [9], the Mean % Inh at 1000 nM, BMP-9 induced Hep Luc Assay was -76.1%.
Regarding human IgGPAA4 control (antibody), the Mean % Inh at 1000 nM, BMP-5 induced Hep Luc Assay in [3] amounted to 2.5%. In addition, in test [4], the Mean % Inh at 1000 nM, BMP-10 induced Hep Luc Assay worked out at 5.4%. The Mean % Inh at 1000 nM, BMP-2 induced Hep Luc Assay in test [6] amounted to 7.8%. Also, the Mean % Inh at 1000 nM, BMP-7 induced Hep Luc Assay in test [7] is -1.7%. The Mean % Inh at 1000 nM, BMP-4 induced Hep Luc Assay in test [8] was determined as 4.2%. Moreover, the Mean % Inh at 1000 nM, BMP-9 induced Hep Luc Assay in test [9] came to 2.8%.
